These results are taken from patent publication US20230391852A1 (US Dept. of Health and Human Services, published 2023).

The target in one assay is T1, SARS-CoV S1 (SARS-CoV, UniProt P59594 14-667).
T1 construct: domain: S1; also called SARS-CoV S1 protein
The experiment in a line: ELISA, 1 µg/ml coated antigen, 1 µg/ml VHH-hFc.

The target in a further assay is T2, BSA (UniProt P02769 25-607).
T2 construct: also called control protein
The experiment in a line: ELISA, 1 µg/ml coated BSA, 1 µg/ml VHH-hFc. Background: In an ELISA, binding on a coated surface is turned into a signal by an enzyme label.

In assay [1] the target is SARS-CoV-2 spike on pseudovirus (SARS-CoV-2, UniProt P0DTC2 14-1273). The experiment in a line: cell-based or functional assay.
Assay [2] has as its target T3, SARS-CoV S protein trimer expressed on human A431 cells (SARS-CoV, UniProt P59594 14-1255).
T3 construct: whole, on cells; also called S protein of SARS-CoV
The experiment in a line: flow cytometry on A431 cells expressing SARS-CoV S (A431-CoV-S). In general terms: A flow cytometer gives signals particle by particle.

In assay [3] the target is T3, SARS-CoV S protein trimer expressed on …. The experiment in a line: flow cytometry on A431 cells expressing SARS-CoV S protein trimer (FIG. 3B).
The target of another assay is T4, SARS-CoV-2 S trimer (SARS-CoV-2, UniProt P0DTC2 16-1213).
T4 construct: also called SARS-CoV-2 S protein; S homotrimer protein
Nature of the assay: monoclonal phage ELISA, drawn table of OD450 values.

The target of a further assay is SARS-CoV-2 RBD (SARS-CoV-2, UniProt P0DTC2 319-541). The assay is described as above.
Assay [4] addresses T5, RBD-mFc (SARS-CoV-2, UniProt P0DTC2 319-541).
The target in assay [5] is T5, RBD-mFc. This is another data set of the same source.

“And” between values parts separate entries of the source, which are not always exact repeats. Equal entries are not always repeated.

T2 sequence (P02769 25-607 limits assumed): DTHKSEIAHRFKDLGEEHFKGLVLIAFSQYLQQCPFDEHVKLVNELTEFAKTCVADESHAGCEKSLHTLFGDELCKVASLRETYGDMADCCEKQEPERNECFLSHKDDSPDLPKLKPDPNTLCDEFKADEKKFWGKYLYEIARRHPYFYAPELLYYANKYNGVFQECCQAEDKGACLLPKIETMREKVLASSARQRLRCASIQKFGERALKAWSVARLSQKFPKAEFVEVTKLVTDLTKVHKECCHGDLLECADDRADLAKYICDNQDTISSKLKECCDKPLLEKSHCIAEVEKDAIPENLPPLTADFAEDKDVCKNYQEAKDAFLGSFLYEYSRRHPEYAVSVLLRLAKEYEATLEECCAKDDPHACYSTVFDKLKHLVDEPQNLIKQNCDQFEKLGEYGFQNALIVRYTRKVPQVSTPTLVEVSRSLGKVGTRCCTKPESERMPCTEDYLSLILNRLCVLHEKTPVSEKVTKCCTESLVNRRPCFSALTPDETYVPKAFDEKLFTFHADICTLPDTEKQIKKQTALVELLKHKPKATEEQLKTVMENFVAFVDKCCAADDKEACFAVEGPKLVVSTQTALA

B1: 1H6 VHH-hFc (Fc fusion)
chain: AVQLVDSGGGSVQAGGSLNLSCVASGTTLRNGCMAWFRQVPGKEREVVAIIIRATSYTDYADSVKGRFTISQDNAKNTVYLQMKSLTPEDTATYYCAATLYRVNCAKREFDKWGQGTQVTVSS
notes: also called 1H6-hFc; NCI-CoV-1H6 VHH-hFc fusion protein
What is called Kd is the concentration at which binding is half-saturated. B1: the binding result in the assay with SARS-CoV S1 is “no binding (tested: 1 µg/ml)”. Also, in the assay with SARS-CoV-2, the affinity, expressed as Kd, was 37 nM.

B2: 3E8 VHH-hFc (Fc fusion)
chain: QVQLVESGGGLVQAGGSLRLSCATSGFTFSGGYMAWVRQVPGKGLEWVANSIYDGSTYYSDAVKGRFTVSQDNAENTVYLEMNSLEPEDTAMYYCAAGWNGGPWSRTNAYIYWGQGTQVTVSS
notes: also called NCI-CoV-3E8 VHH-hFc fusion protein
Turning to B2, the binding result with SARS-CoV S1 is on record as “binds”; in the assay with BSA, “no binding (tested: 1 µg/ml)”. Also, in assay [1], the “IC50, SARS-CoV-2 spike pseudovirus neutralization, repeated assay (FIGS. 9A-9F)” value was 1170 nM.

B3: 7A3 VHH-hFc (Fc fusion)
chain: QVQLVESGGGSVQPGGSLRLSCVVSGYTSSSRYMGWFRQVPGKGLEWVSGIKRDGTNTYYADSVKGRFTISQDNAKNTVYLQMNSLKPEDTAMYYCAAGSWYNQWGYSMDYWGKGTQVTVSS
notes: also called 7A3-hFc; NCI-CoV-7A3 VHH-hFc fusion protein
B3 had a Kd with SARS-CoV-2 of 0.2 nM. In assay [2], the “percent of cells right of the dashed gate line” value (“percent” for short) came to 92.1%.

B4: 8A2 VHH-hFc (Fc fusion)
chain: AVQLVDSGGGSVQAGGSLRLSCAASGYTYSICTMGWYRQAPGEGLEWVSGINADGSNTHYTDSVKGRFTISRDNAKKTLYLQMNSLKPEDTAIYYCAAHGTYDKYAPCGGFAGTYTYWGQGTQVTVSS
notes: also called NCI-CoV-8A2 VHH-hFc
Consider B4, for which, in [3], the binding result was “no binding”. In the assay with SARS-CoV-2, binding was characterised by a dissociation constant (Kd) of 0.26 nM. Further, the “percent” value in assay [2] came out at 59.2%.

B5: NCI-CoV-7E7 (VHH)
VHH: AVQLVDSGGGSVQSGGSLRLSCVASGYTYSIYNMGWFRQAPGKGLEWVSGINSDGSNTYYADSVKGRFTISRDNAKNTLYLQMNSLKSEDTALYYCATLPICSGGYCPPGYWGQGTQVTVSS
As for B5, the OD450 amounted to 0.57 in the assay with SARS-CoV-2 S trimer and 1 with SARS-CoV-2 RBD.

B6: 1B5 VHH-hFc (Fc fusion)
chain: DVQLVESGGGSVQAGGSLRLSCTGSRYTYSTYCMGWFRQAPGKEEEAVAIINSGGGEPYYGDSVKGRFTISQDRAKNTVYLQMDGLQPDDTAIYYCVAADSHNSRCYLGRSYVNYWGQGTQVTVSS
notes: also called 1B5-hFc; NCI-CoV-1B5 VHH-hFc fusion protein
Usually IC50 stands for the concentration that inhibits the measured activity by half. In the case of B6, the binding result with BSA is recorded as “no binding (tested: 1 µg/ml)”. In addition, the “IC50 (read off the curve)” value in the assay with RBD-mFc [4] was roughly 0.3 µg/mL. Also, the IC50 in the assay with RBD-mFc [5] was less than 0.001 µg/mL. Further, in [1], the “IC50, SARS-CoV-2 spike pseudovirus neutralization on HEK 293T-hACE2 cells” value was 6.6 nM and 0.55 µg/ml; the “IC50, SARS-CoV-2 spike pseudovirus neutralization, repeated assay (FIGS. 9A-9F)” value is 7.6 nM. Besides, the Kd in the assay with SARS-CoV-2 came to 0.1 nM. Moreover, in assay [2], the “percent” value worked out at 98.3%.
